Laboratory results published in PMC6386705.

Experiments:
[1] = target: HuR RRM3 (residues 241 to 326) (human), Q15717; assay: ITC; conditions: remark: other sources report otherwise
[2] = target: HuR RRM3 (residues 241 to 326) (human), Q15717; assay: NMR 15N relaxation; conditions: remark: other sources report otherwise

B1: HuR RRM3 (residues 241 to 326), Q15717 241-326 (domain or fragment)
chain: SSGWCIFIYNLGQDADEGILWQMFGPFGAVTNVKVIRDFNTNKCKGFGFVTMTNYEEAAMAIASLNGYRLGDKILQVSFKTNKSHK
In the case of B1, the Kd [1] is reported as 31.7 µM and the stoichiometry N [2] is reported as 2.
